# B1: recombinant human resistin: recombinant human resistin (endotoxin concentration less than 0.1 ng/μg, PeproTech) (protein, UniProt Q9HD89 19-108, looked up)
# Resistin: KTLCSMEEAINERIQEVAGSLIFRAISSIGLECQSVTSRGDLATCPRGFAVTGCTCGSACGSWDVRAETTCHCQCAGMDWTGARCCRVQP
# B2: recombinant mouse resistin: Mouse recombinant resistin (PeproTech EC, London, U.K.) (protein, UniProt Q99P87 21-114, looked up)
# Resistin: SSMPLCPIDEAIDKKIKQDFNSLFPNAIKNIGLNCWTVSSRGKLASCPEGTAVLSCSCGSACGSWDIREEKVCHCQCARIDWTAARCCKLQVAS
# Tests used:
# [1] = test system: human PBMC (resistin mRNA); test: Stimulation of human PBMC with pro-inflammatory cytokines: resistin mRNA; format: cell-based; settings: human PBMC (n=5), physiological concentrations (TNF-alpha 1-5 ng/ml)
# Description: (§1) Peripheral blood mononuclear cells (PBMC) were prepared from heparinized blood of healthy individuals by separation on a Lymphoprep density gradient, washed, and resuspended in complete medium (Iscoves medium containing 1% L-glutamine, 5×10^−5 M ®-mercapto ethanol, […] of gentamycin sulphate, and 10% heat inactivated fetal calf serum). Culturing of PBMC was carried out in 24-well plates in a humidified atmosphere of 5% CO2 at 37° C. Culturing of monocytic cell line THP-1 (American Type Culture Collection, Manassas, Va.) was performed in 10-ml culture flasks (Nunclon) in […] medium supplemented with 10% FCS, 1% sodium pyruvate, gentamycin, and 2.5% Hepes in a humidified atmosphere of 5% CO2 at 37° C. For the experiments, 4-days old cells were harvested, washed, and adjusted to 1×10^6 cells/ml.
# (§2) Total RNA from harvested cells was extracted by an RNAeasy kit (Qiagen, Inc.) and concentration was assessed spectrophotometrically at 260 nm. The gene expression was measured with TaqMan real time PCR (Applied Biosystems, Foster City, Calif.) as previously described (N&S, 2001). In short, total RNA extracts were treated with deoxyribonuclease I, and reverse transcribed with random nonamer primers and superscript II RnaseH-reverse transcriptase (life Technologies). After first strand cDNA synthesis, relative transcript cDNA levels were measured using oligonucleotide PCR primers and fluorogenic Taqman probes for test genes and 18S rRNA. […] For generation of the standard curve, serially diluted cDNA prepared from PBMC were used. Each TaqMan set span one or two exon joints in order to increase further both specificity of only RNA detection and efficiency of PCR reaction. Sequences were manually designed with using the PrimerExpress program (Applied Biosystems) to check them for secondary structure, melting temperature, GC content, primer to primer and/or to probe dimmers. The GenBank database was useful to avoid all known sites of oligonucleotide polymorphism and unspecific annealing of any nucleotide.
# THP-1 cells = test: Stimulation of monocytic cell line THP-1; format: cell-based, human
# Description: as §1
# human PBMC = test: Resistin stimulation of PBMC: cytokine gene expression and cytokine release; format: cell-based
# Description: as §1
# Freshly isolated PBMC were re-suspended to 2×10^6/ml and stimulated with recombinant human resistin (endotoxin concentration less than 0.1 ng/μg, PeproTech) at final concentration 10-1000 ng/ml. LPS (10 ng/ml) was used as a positive control in all the experiments. […] Cell stimulation period differed depending on the read-out system used. […]
# Total RNA from harvested cells was extracted by an RNAeasy kit (Qiagen, Inc.) and concentration was assessed spectrophotometrically at 260 nm. The gene expression was measured with TaqMan real time PCR (Applied Biosystems, Foster City, Calif.) as previously described (N&S, 2001). […] After first strand cDNA synthesis, relative transcript cDNA levels were measured using oligonucleotide PCR primers and fluorogenic Taqman probes for test genes and 18S rRNA. […]
# The level of IL-6 in synovial fluid and supernatants was determined by a bioassay. The effect of test samples on proliferation of the IL-6 dependent cell line B13.29 [21] was assessed following 72 h of culturing. The results were analyzed by incorporation of [3H]-thymidine (Radiochemical Centre, Amersham, Bucks, U.K.) during the last 4 h of incubation at 37° C. […]
# Levels of TNF-α and IL-1B were assessed using an ELISA kit (R&D Systems) following manufacture's recommendations. […]
# NF-kappaB = test: Electrophoretic mobility shift assay of nuclear extracts of resistin-stimulated PBMC; format: cell-based, human; settings: PBMC stimulated with resistin
# Description: Human PBMC (10^7) were stimulated with recombinant resistin (10-500 ng/ml) as described above. After 2 h, the stimulation was stopped with ice-cold PBS, cells were washed and resuspended in 2 ml hypotonic buffer (pH 7.9, containing 10 mM HEPES, 0.1 mM EDTA, 0.1 mM EGTA, 10 mM KCl, 0.75 mM spermidin, 0.15 mM spermin, […] and proteinase inhibitors, Complete MiniTab, Boehringer) and homogenised. Following centrifugation at 14000 g at 4° C. for 10 min, the supernatant was removed and the pellet was resuspended in the ice-cold extraction buffer (pH 7.9, 20 mM HEPES, 0.42 M NaCl, […], 1 mM EGTA, 25% glycerol, […] and proteinase inhibitors). Extraction proceeded at 4° C. under continuous rotation for 1 h. The supernatants containing nuclear extracts were collected after centrifugation 14000 g for 1 h at 4° C. Protein concentration in the extracts was determined using Bradford reagent (Sigma). Nuclear extracts were aliquoted and stored at −70° C. until use.
# EMSA was performed as described elsewhere (Bergquist et al., 2000) with minor modifications. The sequences for oligonucleotides used for the assay were as follows:
# Oligonucleotides were annealed at 56° C. The double stranded product was purified by elution from the electrophoretic gel. […]
# synovial cells = test: In vitro stimulation of synovial cells from patients with acute synovitis; format: cell-based, human; settings: synovial cells from patients with acute synovitis (n=4)
# Description: as §2
# [2] = test system: knee joint of healthy mice; test: Intra-articular injection of recombinant mouse resistin into knee joint, histology; format: in vivo
# Description: Female NMRI mice, 6-8 weeks old, weighing 25-30 g, were purchased from ALAB (Stockholm, Sweden). The mice were bred and housed in the animal facility of the Department of Rheumatology, University of Göteborg, under standard conditions of temperature and light, and fed laboratory chow and water ad libidum. Mouse recombinant resistin (PeproTech EC, London, U.K.) was injected intra-particularly into the right knee joint (0.1-100 ng/knee) in the total volume of 20 μl. Control mice obtained equivalent volume of mouse albumin (Sigma, St. Louise, Mo.) in PBS buffer. Three days after the joint injection, the mice were sacrificed by cervical dislocation and the right knee was removed for histological examination.
# Histological examination of joints was done after routine fixation, decalcification, and paraffin embedding of the tissue. Tissue sections of the knee joints were cut and stained with hematoxylin and eosin. All the slides were coded and evaluated blindly by two investigators with respect to synovial hypertrophy, the inflammatory cell infiltration of synovia, pannus formation, and cartilage and subchondral bone destruction. Synovial hypertrophy was defined as synovial membrane thickness of more than two cell layers. Intensity of in-flammatory cell infiltration of synovia was graded arbitrarily from 0 to 3.
molecule,measurement,setting,value
IL-6: pro-inflammatory cytokine used to stimulate PBMC,induction of resistin mRNA,[1],less efficient
TNF-alpha,expression of resistin gene,THP-1 cells; THP-1 cells,neither stimulation with TNF-a nor with LPS gave rise to the expression of resistin gene
same,induction of resistin mRNA,[1],could induce the expression of resistin
IL-1b: pro-inflammatory cytokine used to stimulate PBMC,induction of resistin mRNA,[1],less efficient
B1,IL-6 activity and levels of TNF-alpha and IL-1b in supernatants,"human PBMC; PBMC, 48 hours of stimulation",dose dependent increase
same,"cytokine gene expression (TNF-alpha, IL-6, IL-1b) in cell lysates","human PBMC; PBMC, resistin 10-1000 ng/ml",induction of genes for pro-inflammatory cytokines
same,resistin gene expression in PBMC,"human PBMC; resistin stimulation, detectable following 3 h up to 24 h",self-stimulation of resistin gene
same,NF-kappaB translocation (EMSA),NF-kappaB,induced translocation of NF-kappaB from cytoplasma to nucleus
same,cytokine production,THP-1 cells; THP-1 stimulated with resistin,cytokine production in the pattern similar to PBMC
same,expression of TNF-alpha and IL-6 genes,synovial cells,increased expression of TNF-alpha and IL-6 genes
B2,histological analysis of injected joints,"[2]; 0.1-100 ng/knee intra-articularly, three days after injection",signs of inflammation in the joint
same,leukocyte infiltration and hyperplasia of synovia,"[2]; single intra-articular injection, 1 ng/knee (50 ng/ml)",sufficient to induce leukocyte infiltration and hyperplasia of synovia

# — patent US20080039411A1, “Use Of Resistin Antisense Oligonucleotides And/Or Sirna Molecules In The Treatment Of Rheumatoid Arthritis” (priority 2004, published 2008)
